Experimental findings from paper doi:10.64898/2025.12.18.695077v1 are described below.

This series deals with O=P(O)(OC[C@@H](O)CO)OC[C@@H](O)CO. Nature of the series: purified protein. Conditions: co-substrate C22:6-CoA 100 uM, pH 7.4, 37 C, 0.05% LMNG.

Consider “CLN8 (FLAG-STREP-tagged, purified from human Flp-In T-REx 293 cells) (Homo sapiens)”, for which the Michaelis constant (Km) (as a rule, the substrate concentration at which the rate is half of its maximum) was found to be 570 µM; the kcat – broadly, the number of substrate molecules converted per active site and unit of time at saturation – was found to be 0.8022 s⁻¹.
